This is an account of results in patent US20200400662A1.

The target of the experiment is Drug A. Nature of the experiment: cell-based or functional assay.

Several values for one entry are separate records, joined by “and”; a condition that tells them apart may be missing. Equal entries are not always repeated.

B1: Fab fragment of Antibody C (Fab, V domains shown)
VH: DVQLVESGGGVVRPGESLRLSCEASGFTFSSNAMSWVRQAPGKGLEWVAGISSGSDTYYGDSVKGRLTISRDNSKNILYLQMNSLTAEDTAVYYCARETWNHLFDYWGQGTLVTVSS
VL: SYELTQPPSVSVSPGQTARITCSGGSYSSYYYAWYQQKPGQAPVTLIYSDDKRPSNIPERFSGSSSGTTVTLTISGVQAEDEADYYCGGYDQSSYTNPFGGGTKLTVL
As for B1, the hemagglutination of Drug A-coated erythrocytes with anti-IgG; molar excess of Fab that prevented it (fold molar excess relative to Drug A) was 200 and 400.

B2: Fab fragment of Antibody A (Fab, V domains shown)
VH: DVQLVESGGGVVRPGESLRLSCAASGFSFSSYAMNWVRQAPGEGLEWVSRINSGGGGTDYAESVKGRFTISRDNSENTLYLQMNSLRAEDTAVYYCAKQYDWNSFFDYWGLGALVTVSS
VL: ETVLTQSPATLSVSPGERATLSCRASQTVGSKLAWHQQKPGQAPRLLIYDATNRATGISDRFSGSGSGTDFTLTISSLQTEDSAVYYCQQYYYWPPYRFGGGTKVEIK
B2 returned a hemagglutination of Drug A-coated erythrocytes with anti-IgG; molar excess of Fab that prevented it (fold molar excess relative to Drug A) of 2500.
